Assay results taken from article PMC2680334, “Polo-Like Kinase 1 Directs Assembly of the HsCyk-4 RhoGAP/Ect2 RhoGEF Complex to Initiate Cleavage Furrow Formation” (PLoS Biology, 2009).
Each block holds one molecule with its values, some of them ahead of it.

B2: Ect2-BRCT (1–421), soluble, CBD removed by TEV (domain or fragment, UniProt Q9H8V3-4 1-421, looked up)
chain: MAENSVLTSTTGRTSLADSSIFDSKVTEISKENLLIGSTSYVEEEMPQIETRVILVQEAGKQEELIKALKDIKVGFVKMESVEEFEGLDSPEFENVFVVTDFQDSVFNDLYKADCRVIGPPVVLNCSQKGEPLPFSCRPLYCTSMMNLVLCFTGFRKKEELVRLVTLVHHMGGVIRKDFNSKVTHLVANCTQGEKFRVAVSLGTPIMKPEWIYKAWERRNEQDFYAAVDDFRNEFKVPPFQDCILSFLGFSDEEKTNMEEMTEMQGGKYLPLGDERCTHLVVEENIVKDLPFEPSKKLYVVKQEWFWGSIQMDARAGETMYLYEKANTPELKKSVSMLSLNTPNSNRKRRRLKETLAQLSRETDVSPFPPRKRPSAEHSLSIGSLLDISNTPESSINYGDTPKSCTKSSKSSTPVPSKQSA
notes: Ect2 N terminus with the BRCT repeats, residues 1–421; the printed UniProt entry is the human protein; also called soluble Ect2-BRCT; source: E. coli BL21 (DE3) RIL, purified on chitin beads, eluted by TEV cleavage

How the values were obtained:
Ect2 Ect2-BRCT, 1-421 [1] = biological target: Ect2 Ect2-BRCT, 1-421 (UniProt Q9H8V3); experiment: CBD bead pull-down, Coomassie; conditions: reference: 4A without Plk1
Ect2 Ect2-BRCT, 1-421 [2] = biological target: Ect2 Ect2-BRCT, 1-421 (UniProt Q9H8V3); experiment: CBD bead pull-down, Coomassie or blot; conditions: reference: HsCyk-4-Nt without Plk1; sites S149,S157,S164,S170
[3] = biological target: B2; experiment: pull-down; 100 nM CBD fusion on chitin beads, with or without 50 nM Plk1-T210D 1–306 and ATP (60 min, 30°C), washed; soluble partner added at equimolar amounts; 20 mM HEPES pH 7.2, 150 mM NaCl, 5 mM MgCl2, 1 mM DTT, 0.1% Triton X-100; 90 min at 4°C; Coomassie staining or Western blot; conditions: both partners purified
[4] = biological target: T1, CBD–HsCyk-4-Nt (1–288) phosphorylated by Plk1, immobilised (UniProt Q9H0H5 1-288, phosphorylated in vitro by Plk1-T210D (1–306); Ser149, Ser157, Ser164 and Ser170 named as the sites); experiment: as above; conditions: both partners purified
T1 construct: HsCyk-4/MgcRacGAP N terminus, residues 1–288; the printed UniProt entry is the human protein; also called HsCyk-4-wt (with Plk1); source: E. coli BL21 (DE3) RIL, purified on chitin beads, phosphorylated on the beads with Plk1-T210D 1–306
T1 sequence (looked up): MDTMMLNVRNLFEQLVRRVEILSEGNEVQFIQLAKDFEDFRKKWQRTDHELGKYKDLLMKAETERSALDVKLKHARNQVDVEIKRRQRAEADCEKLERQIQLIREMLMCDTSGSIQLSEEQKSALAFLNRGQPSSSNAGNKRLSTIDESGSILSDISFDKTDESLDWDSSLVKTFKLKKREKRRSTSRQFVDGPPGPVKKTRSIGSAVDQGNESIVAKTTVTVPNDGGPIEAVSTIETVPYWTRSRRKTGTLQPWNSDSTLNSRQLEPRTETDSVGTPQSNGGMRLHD

[5] = biological target: T2, CBD–HsCyk-4-Nt-4A (1–288), incubated with Plk1, immobilised (UniProt Q9H0H5 1-288, Ser149 to Ala | Ser157 to Ala | Ser164 to Ala | Ser170 to Ala, incubated with Plk1-T210D (1–306) and ATP; remaining phosphorylation sites not stated); experiment: as above; conditions: both partners purified
T2 construct: HsCyk-4/MgcRacGAP N terminus, residues 1–288, four serines changed to alanine; also called HsCyk-4-4A; source: E. coli BL21 (DE3) RIL, purified on chitin beads, incubated on the beads with Plk1-T210D 1–306 and ATP
T2 sequence (looked up): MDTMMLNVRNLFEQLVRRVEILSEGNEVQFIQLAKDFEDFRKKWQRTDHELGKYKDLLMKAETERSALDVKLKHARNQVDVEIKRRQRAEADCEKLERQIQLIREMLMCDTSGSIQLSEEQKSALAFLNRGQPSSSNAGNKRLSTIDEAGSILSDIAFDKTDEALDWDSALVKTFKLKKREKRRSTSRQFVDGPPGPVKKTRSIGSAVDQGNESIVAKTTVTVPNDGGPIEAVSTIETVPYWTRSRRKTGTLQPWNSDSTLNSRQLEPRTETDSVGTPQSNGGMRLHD

[6] = biological target: T3, CBD–HsCyk-4-Nt-4D (1–288), incubated with Plk1, immobilised (UniProt Q9H0H5 1-288, Ser149 to Asp | Ser157 to Asp | Ser164 to Asp | Ser170 to Asp, incubated with Plk1-T210D (1–306) and ATP; remaining phosphorylation sites not stated); experiment: as above; conditions: both partners purified
T3 construct: HsCyk-4/MgcRacGAP N terminus, residues 1–288, four serines changed to aspartate; also called HsCyk-4-4D (with Plk1); source: E. coli BL21 (DE3) RIL, purified on chitin beads, incubated on the beads with Plk1-T210D 1–306 and ATP
T3 sequence (looked up): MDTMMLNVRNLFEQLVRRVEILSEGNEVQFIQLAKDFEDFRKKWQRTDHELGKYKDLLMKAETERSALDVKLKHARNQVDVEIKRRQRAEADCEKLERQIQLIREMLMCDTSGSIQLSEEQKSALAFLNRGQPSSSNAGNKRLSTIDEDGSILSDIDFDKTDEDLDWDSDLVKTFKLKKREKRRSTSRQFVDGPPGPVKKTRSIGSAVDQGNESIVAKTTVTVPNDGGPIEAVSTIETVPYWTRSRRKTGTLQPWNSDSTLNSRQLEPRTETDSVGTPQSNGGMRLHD

Molecule: HsCyk-4/MgcRacGAP HsCyk-4-Nt, 1-288 (from UniProt Q9H0H5) HsCyk-4-Nt treated with Plk1-T210D kinase domain and ATP
- fold change (Ect2 Ect2-BRCT, 1-421 [2]): 20.2 fold

Molecule: B2
- fold stimulation of binding upon Plk1 phosphorylation (against the protein without Plk1) [4]: 20.2 fold
- fold stimulation of binding upon Plk1 phosphorylation (against the protein without Plk1) [5]: 3.1 fold
- fold stimulation of binding upon Plk1 phosphorylation (against the protein without Plk1) [6]: 1.7 fold

Continued, values first:

- fold change (Ect2 Ect2-BRCT, 1-421 [1]): 3.1 fold
Molecule: HsCyk-4/MgcRacGAP HsCyk-4-Nt, 1-288 (from UniProt Q9H0H5) 4A treated with Plk1 and ATP

- binding result [3]: binds
B1: CBD–HsCyk-4-Nt-4D (1–288), not incubated with Plk1, immobilised (domain or fragment, UniProt Q9H0H5 1-288, looked up)
chain: MDTMMLNVRNLFEQLVRRVEILSEGNEVQFIQLAKDFEDFRKKWQRTDHELGKYKDLLMKAETERSALDVKLKHARNQVDVEIKRRQRAEADCEKLERQIQLIREMLMCDTSGSIQLSEEQKSALAFLNRGQPSSSNAGNKRLSTIDEDGSILSDIDFDKTDEDLDWDSDLVKTFKLKKREKRRSTSRQFVDGPPGPVKKTRSIGSAVDQGNESIVAKTTVTVPNDGGPIEAVSTIETVPYWTRSRRKTGTLQPWNSDSTLNSRQLEPRTETDSVGTPQSNGGMRLHD
notes: HsCyk-4/MgcRacGAP N terminus, residues 1–288, four serines changed to aspartate; also called HsCyk-4-4D; source: E. coli BL21 (DE3) RIL, purified on chitin beads, kept on the beads
